# Changes are numbered by the printed parent chain. Numbers in names are those of the source.
# B1: FKBP-265: FKBP13 DRD-AcGFP construct of Table 10 (protein)
# chain: HCPIKSRKGDVLHMHYTGKLEDGTEFDSSLPRNQPFVFSLGWGRRIKGWDQGLLGMCEGEKRKLVIPSELGYGERGWPPKIPGGATLVFEVELLKIER
# modifications: Description of sequence: Construct Name: FKBP-265; Mutation(s): Q72R T82W Q84R A117W DRD V85R
# B2: FKBP-276: FKBP13 DRD-AcGFP construct of Table 10 (protein)
# chain: B1 chain with Q34R, W42T, R44E
# modifications: Description of sequence: Construct Name: FKBP-276; Mutation(s): Q72R Q74R Q84E A117W V85R
# B3: FKBP-279: FKBP13 DRD-AcGFP construct of Table 10 (protein)
# chain: B1 chain with Q34R, W42T, R44E, K80I
# modifications: Description of sequence: Construct Name: FKBP-279; Mutation(s): Q72R Q74R Q84E A117W V85R K120I
# B4: FKBP-277: FKBP13 DRD-AcGFP construct of Table 10 (protein)
# chain: B1 chain with Q34R, W42T, R44E, K95Y
# modifications: Description of sequence: Construct Name: FKBP-277; Mutation(s): Q72R Q74R Q84E A117W V85R K135Y
# B5: FKBP-278: FKBP13 DRD-AcGFP construct of Table 10 (protein)
# chain: B1 chain with Q34R, W42T, R44E, E90F
# modifications: Description of sequence: Construct Name: FKBP-278; Mutation(s): Q72R Q74R Q84E A117W V85R E130F
# B6: FKBP-283: FKBP13 DRD-AcGFP construct of Table 10 (protein)
# chain: B1 chain with Q34W, W42T, R44E, K95Y
# modifications: Description of sequence: Construct Name: FKBP-283; Mutation(s): Q72R Q74W Q84E A117W V85R K135Y
# B7: FKBP-280: FKBP13 DRD-AcGFP construct of Table 10 (protein)
# chain: B1 chain with Q34R, W42T, R44E, K80I, K95Y
# modifications: Description of sequence: Construct Name: FKBP-280; Mutation(s): Q72R Q74R Q84E A117W V85R K135Y K120I
# B8: FKBP-282: FKBP13 DRD-AcGFP construct of Table 10 (protein)
# chain: B1 chain with Q34W, W42T, R44E
# modifications: Description of sequence: Construct Name: FKBP-282; Mutation(s): Q72R Q74W Q84E A117W V85R
# B9: FKBP-281: FKBP13 DRD-AcGFP construct of Table 10 (protein)
# chain: B1 chain with Q34R, W42T, R44E, K80I, E90F
# modifications: Description of sequence: Construct Name: FKBP-281; Mutation(s): Q72R Q74R Q84E A117W V85R E130F K120I
# B10: FKBP-287: FKBP13 DRD-AcGFP construct of Table 10 (protein)
# chain: B1 chain with Q34W, W42T, R44E, K80I, E90F
# modifications: Description of sequence: Construct Name: FKBP-287; Mutation(s): Q72R Q74W Q84E A117W V85R E130F K120I
# B11: FKBP-286: FKBP13 DRD-AcGFP construct of Table 10 (protein)
# chain: B1 chain with Q34W, W42T, R44E, K80I, K95Y
# modifications: Description of sequence: Construct Name: FKBP-286; Mutation(s): Q72R Q74W Q84E A117W V85R K135Y K120I
# B12: FKBP-285: FKBP13 DRD-AcGFP construct of Table 10 (protein)
# chain: B1 chain with Q34W, W42T, R44E, K80I
# modifications: Description of sequence: Construct Name: FKBP-285; Mutation(s): Q72R Q74W Q84E A117W V85R K120I
# B13: FKBP-284: FKBP13 DRD-AcGFP construct of Table 10 (protein)
# chain: B1 chain with Q34W, W42T, R44E, E90F
# modifications: Description of sequence: Construct Name: FKBP-284; Mutation(s): Q72R Q74W Q84E A117W V85R E130F
# B14: FKBP-288: FKBP13 DRD-AcGFP construct of Table 10 (protein)
# chain: B1 chain with W42T, R44E, K80I
# modifications: Description of sequence: Construct Name: FKBP-288; Mutation(s): Q72R Q84E A117W V85R K120I
# B15: FKBP-268: FKBP13 DRD-AcGFP construct of Table 10 (protein)
# chain: B1 chain with C2R, W42T, R44E
# modifications: Description of sequence: Construct Name: FKBP-268; Mutation(s): Q72R Q84E A117W V85R DRD C42R
# B16: FKBP-274: FKBP13 DRD-AcGFP construct of Table 10 (protein)
# chain: B1 chain with W42T, R44E, E69K
# modifications: Description of sequence: Construct Name: FKBP-274; Mutation(s): Q72R Q84E A117W V85R DRD E109K
# B17: FKBP-273: FKBP13 DRD-AcGFP construct of Table 10 (protein)
# chain: B1 chain with W42T, R44E, E74G
# modifications: Description of sequence: Construct Name: FKBP-273; Mutation(s): Q72R Q84E A117W V85R DRD E114G
# B18: FKBP-271: FKBP13 DRD-AcGFP construct of Table 10 (protein)
# chain: B1 chain with W42T, R44E, K63R
# modifications: Description of sequence: Construct Name: FKBP-271; Mutation(s): Q72R Q84E A117W V85R DRD K103R
# B19: FKBP-275: FKBP13 DRD-AcGFP construct of Table 10 (protein)
# chain: B1 chain with G9D, W42T, R44E
# modifications: Description of sequence: Construct Name: FKBP-275; Mutation(s): Q72R Q84E A117W V85R DRD G49D
# B20: FKBP-270: FKBP13 DRD-AcGFP construct of Table 10 (protein)
# chain: B1 chain with L12M, W42T, R44E
# modifications: Description of sequence: Construct Name: FKBP-270; Mutation(s): Q72R Q84E A117W V85R DRD L52M
# B21: FKBP-266 (protein)
# chain: B1 chain with D10L, W42T, R44E
# modifications: Description of sequence: Construct Name: FKBP-266; Mutation(s): Q72R Q84E A117W V85R DRD D50L
# B22: FKBP-267 (protein)
# chain: B1 chain with W42T, R44E, M56W
# modifications: Description of sequence: Construct Name: FKBP-267; Mutation(s): Q72R Q84E A117W V85R DRD M96W
# B23: FKBP-269 (protein)
# chain: B1 chain with H13Q, W42T, R44E
# modifications: Description of sequence: Construct Name: FKBP-269; Mutation(s): Q72R Q84E A117W V85R DRD H53Q
# Tested on: Jurkat cells
# Experiment: Tacrolimus dose response of FKBP13-AcGFP-mCherry constructs stably transduced into Jurkat cells, GFP MFI by flow cytometry
# Format: cell-based
# Parameters: Basal: unit not given here
# Settings: FIG. 45; BR1 (Biorep 1)
# In short: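 Jurkat E6-1 cells lentivirally transduced with FKBP13-AcGFP-mCherry constructs to 10-25% mCherry+ (day 5) were dosed with tacrolimus. GFP geometric MFI in mCherry+ cells was measured by flow cytometry and fitted to dose-response curves.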
Molecule,Basal,FC
B1,78,53.72

# Same assay, conditions: FIG. 45; BR1 (Biorep 1); at 10 uM
row,Molecule,At 10 uM
1,B1,4190

# Same assay, conditions: FIG. 45; BR2 (Biorep 2)
Molecule,Basal,FC
B1,102,41.58

# Same assay, conditions: FIG. 45; BR2 (Biorep 2); at 10 uM
row,Molecule,At 10 uM
1,B1,4241

# Same assay, conditions: tacrolimus; FIG. 35
Molecule,FC,Peak
B2,7.54,2859
B3,31.33,3302
B4,61.04,2581
B5,92.73,3425

# Same assay, conditions: tacrolimus; FIG. 36
Molecule,FC,Peak
B6,39.79,1328
B7,68.34,2468
B8,39.54,2473
B9,77.66,2905

# Same assay, conditions: tacrolimus; FIG. 37
Molecule,FC,Peak
B10,47.09,1747
B11,25.96,1089
B12,36.71,2161
B13,58.23,2441

# Same assay, conditions: tacrolimus; FIG. 38
Molecule,FC,Peak
B14,30.10,3718

# Same assay, conditions: tacrolimus; FIGS. 31 and 32
row,Molecule,FC
1,B1,58
2,B15,18

# Same assay, conditions: tacrolimus; FIGS. 33 and 34
row,Molecule,FC
1,B16,34
2,B17,36
3,B18,19
4,B19,56
5,B20,38

# Same assay, conditions: tacrolimus; Jurkat cells; Table 13
row,Molecule,Fold Change
1,B1,53.72
2,B10,47.09
3,B11,25.96
4,B2,7.54
5,B16,34
6,B14,30.1
7,B17,36
8,B21,60
9,B6,39.79
10,B3,31.33
11,B18,19
12,B19,56
13,B12,36.71
14,B7,68.34
15,B8,39.54
16,B20,38
17,B22,67
18,B23,44
19,B13,58.23
20,B4,61.04
21,B15,18
22,B9,77.66
23,B5,92.73
